Results reported in patent US20220296727A1, “Immunoconjugate” (DendroCyte BioTech Pty Ltd, priority 2019, published 2022).
Entries after “also recorded” stand apart in the source; their conditions may differ.

Assays:
T cells = test: Mixed leucocyte reaction; format: cell-based, human; conditions: 200 pmol, 24 hours pre-incubation of stimulators, day 5
Experimental: DCR-2PBD's impact on antigen presentation was assessed by incubating DCR-2PBD or isotope-PBD with whole PBMC for 24 hours then washing, afterwards adding allogenic CFSE labeled T cells (naive CD4, magnetically separated) and measuring T cell division via reduction in CFSE expression. In more detail, T cells were depleted from PBMC by magnetic selection using an AutoMACS Pro with anti-CD3 mAb (HIT3a, Biolegend) with greater than 90% depletion in all samples. The CD3-depleted PBMC were incubated in complete RPMI media with DCR-2-PBD (200 pmol), isotype-PBD (200 pmol) or PBS for 24 hours. After washing to remove unbound ADC, the CD3-depleted PBMC were used to stimulate allogeneic CFSE labelled naive CD4+ T cells which had been prepared using a RosetteSep Kit (Stem Cell Technologies 17555). On day 5 the proliferation of T cells, identified using anti-CD3 AF700 (SP34-2), was assessed by CFSE reduction using flow cytometry. The results of the DCR-2-PBD and isotype-PBD groups were normalised to the PBS control group. […]
T cells were depleted from PBMC by magnetic selection using an AutoMACS Pro with anti-CD3 mAb (HIT3a, Biolegend) with greater than 90% depletion in all samples. […] On day 5 the proliferation of T cells, identified using anti-CD3 AF700 (SP34-2), was assessed by CFSE reduction using flow cytometry. […]

HL-60 cells = test: HL-60 leukemic xenograft model in NSG mice; format: in vivo, mouse
Experimental: For the HL-60 leukemic model, NSG mice were irradiated with 200cGy 24 hours prior to intravenous administration of 5×10^6 HL-60 cells. On day 7, mice were injected with DCR-2-PBD, isotype-PBD or PBS and monitored for disease progression and survival. Mice were euthanised when their clinical score was ≥4 or on d70.
On day 7, mice received a single injection of either PBS, or 300 μg/kg of CMRF-81PBD or DCR-2PBD, and their survival monitored.

[1] = test system: HSPC colony forming units; test: Colony forming unit toxicity assay, cord blood HSPC; format: cell-based, human
Experimental: CFU colonies were plated at 2×10^4 cells/well in semi-solid methylcellulose medium (MethoCult Classic, Stemcell Technologies) in a 24 well plate (Corning, N.Y., USA), were cultured at 37° C. in 5% CO2 for 14 days and counted via microscopy. Whole cord blood PBMC was used. CD34^+ progenitors were continuously exposed to multiple concentrations of DCR-2 with equal concentrations of a secondary goat anti mouse antibody conjugated to PBD dimer. As a control, only the secondary PBD dimer conjugated antibody was used as above.
CB cells, plated at 2×10^4 cells/well in semi-solid methylcellulose medium (MethoCult Classic, Stemcell Technologies) in a 24 well plate (Corning, N.Y., USA), were cultured at 37° C. in 5% CO2 for 14 days when colony forming units (CFU) were scored. DCR-2-PBD or isotype-PBD was added to each well for continuous exposure. Three CB samples were tested with duplicate wells performed in each experiment.

[2] = test system: human HSPC and myeloid cells; test: Humanised (CD34+ engrafted) NSG mouse model; format: in vivo; conditions: single dose 300 ug/kg, day 7
Experimental: The humanised mouse model used frozen CD34^+ cells (>95% purity) isolated by positive selection (Miltenyi 130-046-702) according to the manufacturer's instructions from two pooled CB samples. Each NSG mouse was injected with 100,000 CD34+ cells 4 hours after receiving a 150cGy irradiation dose. Engraftment as determined by % human CD45+ cells in venous blood was assessed at 12 weeks. Mice were assigned to treatment groups to have similar means of human CD45+ percentage in the PB (10.16% DCR-2-PBD cohort and 10.74% isotype-PBD cohort). Mice were then injected with 300 ug/kg of DCR-2-PBD or isotype-PBD. Mice were euthanised on day 7 and human CD45+ cells from BM (bilateral femurs and tibias) and 300 μl blood were enumerated and phenotyped by flow cytometry.

B1: DCR-2PBD: anti-CD300f mAb DCR-2 conjugated to pyrrolobenzodiazepine dimer via Cathepsin B-cleavable linker MA-PEG4-VA-PBD; drug to antibody ratio 3.3 (conjugate)
VH: MESGGGLVQPGGPLKLSCAASGFGFSGSWMSWVRQAPGKGLEWIGQINPDSSTINYTPSLKDKFIISRDNAKNTLYLQINKVRSEDTALYYCARRGFFEGYSAWFAYW
VL: ILMTQTPKFLLVSAGDRVTITCKASQSVSNDVAWYQQKPGQSPSLLIYYASNRNTGVPDRFTGSGYETDFTFTISTVQAEDLAVYFCQQDYTSPWTFGGG
With B1 the “T cell proliferation in mixed lymphocyte reaction” value (T cells) was “no impact; also recorded: does not reduce T cell proliferation”, the “human cells in mice surviving until day 70” value (HL-60 cells; 300 ug/kg) was “No human cells could be detected” and the “animals surviving to the experiment endpoint” value (HL-60 cells; 300 ug/kg, endpoint day 70) was “Six of 8”. The “survival compared to isotype-PBD” value (HL-60 cells; single injection 300 ug/kg on day 7 (p=0.0058)) was “significantly increased survival”, the “reduction in total CFUs” value ([1]; 7.84 pM (p=0.0033)) was “Significant reductions” and the “inhibition of all major CFU subtypes” value ([1]; 32.9 pM) was “inhibited”. The “reduction in total CFUs” value ([1]; 39.21 pM (p<0.0001)) was “Significant reductions”, the “inhibition of all major CFU subtypes” value ([1]; 196.1 pM) was “inhibited” and the “reduction in total CFUs” value ([1]; 196.1 pM (p<0.0001)) was “Significant reductions”. The “CD34+ cells as percentage of total human CD45+ cells” value [2] was 3.09%, the “CD34+CD38-CD90+ cells as percentage of total human CD45+ cells” value [2] was 0.16% and the “lymphocytes in the peripheral blood” value [2] was 208.5 cells/μl. The “mean CD34+CD38-CD90+ cell count in BM” value [2] was 0.05×10^4 and the “myeloid cells in the peripheral blood” value [2] was 0.31 cells/μl.
